In patent publication US20230201308A1, “TREATMENT OF CORONAVIRUS INFECTION WITH […]” (Eiger Biopharmaceuticals, Inc., priority 2020, published 2023):
Read-outs that look alike come from different tables or passages of the source.

Tested on: SARS-CoV-2

B1: pegylated interferon lambda-1a (protein)
chain: MKPTTTGKGCHIGRFKSLSPQELASFKKARDALEESLKLKNWSCSSPVFPGNWDLRLLQVRERPVALEAELALTLKVLEAAAGPALEDVLDQPLHTLHHILSQLQACIQPQPTAGPRPRGRLHHWLHRLQEAPKKESAGCLEASVTFNLFRLLTRDLKYVADGNLSLRTSTHPEST
modifications: PEG
notes: 180 mcg subcutaneous injection
risk reduction by dominant variant (August 2021 to December 2021, Delta predominant): 46% | risk reduction by dominant variant (December 2021 to February 2022, Omicron dominant): 83% | # events (variant analysis) (Full Study, June 2021-February 2022, N 916): 916 (25) | risk reduction by dominant variant (June 2021 to August 2021, Gamma predominant): 25% | HR, all-cause mortality or hospitalization due to COVID-19, Time-to-Event analysis (human, in vivo): 0.00 | RR, all-cause mortality or hospitalization due to COVID-19 (human, in vivo): 0.14 | estimated effect across variants (human, in vivo): beneficial across all variants | efficacy across SARS-CoV-2 variants (viral sequencing on all patients): pan-variant efficacy in all variants tested, including omicron
